Data on one molecule can be found in patent publication US8703698B2, “Compositions and methods for treating atherosclerosis” (The University of Chicago, priority 2003, dated 2014).

In data set [1] the target is T1, acyl CoA:cholesterol acyl transferase (Mus musculus, UniProt Q61263).
T1 construct: host or cells: J774 mouse macrophages, cholesterol-loaded
T1 sequence (Q61263 1-540): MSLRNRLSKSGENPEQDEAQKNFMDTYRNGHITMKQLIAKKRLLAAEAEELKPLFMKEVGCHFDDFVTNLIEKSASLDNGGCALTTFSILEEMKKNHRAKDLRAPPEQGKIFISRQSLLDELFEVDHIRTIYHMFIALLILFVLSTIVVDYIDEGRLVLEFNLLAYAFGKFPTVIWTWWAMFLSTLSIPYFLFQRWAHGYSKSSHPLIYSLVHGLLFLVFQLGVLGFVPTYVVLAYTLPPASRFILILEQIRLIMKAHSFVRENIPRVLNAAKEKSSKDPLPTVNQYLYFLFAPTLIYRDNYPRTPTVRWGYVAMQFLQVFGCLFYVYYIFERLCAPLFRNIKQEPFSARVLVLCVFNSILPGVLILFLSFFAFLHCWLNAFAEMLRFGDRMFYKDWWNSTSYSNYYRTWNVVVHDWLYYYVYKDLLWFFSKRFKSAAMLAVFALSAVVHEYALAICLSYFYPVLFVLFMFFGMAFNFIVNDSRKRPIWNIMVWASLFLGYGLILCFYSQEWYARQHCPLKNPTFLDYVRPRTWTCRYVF
The data set is described as follows: ACAT activity in macrophage post-nuclear homogenates. Type of data set: biochemical, murine. Particulars: macrophage post-nuclear homogenates as enzyme source. The source says: The in vitro effects of acute phase-HDL (AP-HDL;HDL-SAA) on acyl CoA:cholesterol acyl transferase and cholesterol ester hydrolase activities and on cellular cholesterol export were studied by the inventors using purified enzymes, cell homogenates, and whole cells. […] In contrast, murine SAA1.1 and apoA-1 had no effect. […] Using macrophages preloaded with radio-labeled cholesterol and injected intravenously into either inflamed or un-inflamed mice, it was shown that the inflamed mice, which have high SAA2.1 levels, effluxed cholesterol more rapidly and to a greater extent (6-fold greater) than their un-inflamed counterparts.

Data set [2] addresses T1, acyl CoA:cholesterol acyl transferase. Particulars: intact murine macrophages and post-nuclear homogenates; Ely et al. 2001; cited from earlier work.
In data set [3] the test system is J774 macrophages. The data set is described as follows: Cholesterol efflux from cholesterol-laden J774 macrophages to apolipoprotein liposomes with 8-bromo-cAMP or methyl-β-cyclodextrin. Type of data set: cell-based, mouse. An excerpt: The export process of cholesterol is coupled to the ATP binding cassette transporter (ABCA1) pathway. Lipid efflux to apolipoproteins has been shown previously to be stimulated by treatment of murine macrophages with cAMP analogues (Lin et al. 2002 Biochem Biophys Res. Commun. 290:663-669; Oram et al. 2000 J. Biol. Chem. 275:34508-34511). Also, the expression of ABCA1 is induced by cAMP treatment (Lin et al. 2002 Biochem Biophys Res. Commun. 290:663-669; Oram et al. 2000 J. Biol. Chem. 275:34508-34511). The inventors herein examined the effect of 8-bromo-cAMP (0.3 mM) on cholesterol efflux by liposomes containing various apolipoproteins when incubated with cholesterol-laden J774 macrophages. Such cells were pre-labeled with [^3H]-cholesterol in the presence of Sandoz 58-035, an ACAT inhibitor, to ensure that all of the radiolabeled cholesterol released from the cells was derived from the un-esterified cholesterol pool, and the cells were treated for 12 hours with 8-bromo-cAMP. This was followed by incubation with various acceptors. The fractional release of cellular labeled cholesterol was determined as a function of time.
To investigate whether an apolipoprotein free cholesterol acceptor such as cyclodextrin has the ability to catalyze the removal of cholesterol from macrophages, cholesterol-loaded and labeled J774 cells were incubated with liposomes and methyl-β-cyclodextrin (0.1 mM) (CD).
To examine whether cholesterol export from J774 cells to medium containing liposomes containing 2 μM murine apoA-1, SAA1.1 or SAA2.1 is a cAMP-dependent process, the radio-labeled cholesterol-laden cells were incubated overnight with 8-Br-cAMP (0.3 mM), prior to the addition of liposomes containing 2 μM murine apoA-1, SAA1.1 or SAA2.1 to the culture medium. Cholesterol efflux to the medium was then determined at the indicated time points as described above. Efflux of radioactive label to the medium was calculated as a percentage of total counts in each well.

B1: GFFSFVHEAFQGAGDMWRAYTDMKEANWKNSDKYFHARGNYDAAQRGPGGVWAAEKISD GREAFQEFFGRGHEDTIADQEANRHGRSGKDPNYYRPPGLPDKY (protein, listed as Mus musculis)
chain: GFFSFVHEAFQGAGDMWRAYTDMKEANWKNSDKYFHARGNYDAAQRGPGGVWAAEKISDGREAFQEFFGRGHEDTIADQEANRHGRSGKDPNYYRPPGLPDKY
notes: full length murine serum amyloid A isoform 2.1 purified from acute phase plasma
Turning to B1, in data set [1], the “acyl CoA:cholesterol acyl transferase activity” value is given as “inhibit acyl CoA:cholesterol acyl transferase activity in a dose-dependent manner”. The “macrophage ACAT activity” value in data set [2] is “inhibit macrophage acyl CoA:cholesterol acyl transferase (ACAT) activity”. For the same molecule, in data set [3] (8-bromo-cAMP 0.3 mM, 12 hours, Sandoz 58-035 present), the “increase in the initial rate of cholesterol efflux to liposomes after cAMP pre-treatment versus untreated cells” value came to 62.1%. Besides, the “further increase in cholesterol efflux by cAMP pre-treatment” value in data set [3] (cells exposed to liposomes and CD) was found to be 45.5%. In data set [3] (methyl-β-cyclodextrin 0.1 mM plus liposomes), the “increase in the initial rate of cholesterol efflux with CD treatment” value worked out at 4 fold.
